Reference: US20160152721A1 (Novartis, published 2016)
Several values for one entry are separate records, joined by “and”; a condition that tells them apart may be missing. Identical values can stand only once.

B1: Chir12.12 (antibody, human IgG1, kappa)
heavy: not shown
light: DIVMTQSPLSLTVTPGEPASISCRSSQSLLYSNGYNYLDWYLQKPGQSPQVLISLGSNRASGVPDRFSGSGSGTDFTLKISRVEAEDVGVYYCMQARQTPFTFGPGTKVDIRRTVAAPSVFIFPPSDEQLKSGTASVVCLLNNFYPREAKVQWKVDNALQSGNSQESVTEQDSKDSTYSLSSTLTLSKADYEKHKVYACEVTHQGLSSPVTKSFNRGEC
notes: also called Chir12.12 (wt Fc); parental anti-CD40 antibody
B2: mAb1 (antibody, human IgG1, kappa, N297A)
heavy: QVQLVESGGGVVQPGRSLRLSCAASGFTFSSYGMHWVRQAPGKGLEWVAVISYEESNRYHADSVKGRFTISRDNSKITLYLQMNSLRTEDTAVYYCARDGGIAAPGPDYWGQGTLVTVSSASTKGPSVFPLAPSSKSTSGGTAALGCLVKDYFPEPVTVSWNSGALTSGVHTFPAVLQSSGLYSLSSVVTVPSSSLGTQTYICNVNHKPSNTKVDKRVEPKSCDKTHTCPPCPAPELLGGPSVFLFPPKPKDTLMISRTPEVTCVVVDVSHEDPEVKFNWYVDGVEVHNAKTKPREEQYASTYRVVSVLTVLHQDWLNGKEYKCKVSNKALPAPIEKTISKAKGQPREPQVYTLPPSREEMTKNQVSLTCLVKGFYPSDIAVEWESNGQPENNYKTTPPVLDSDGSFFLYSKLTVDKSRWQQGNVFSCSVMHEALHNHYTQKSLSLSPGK
light: B1 light
notes: Fc-silent IgG1 variant of Chir12.12 with N297A (aglycosylated); same VH/VL as Chir12.12; also called mAb1 (N297A)
B3: mAb2 (antibody, human IgG1, kappa)
heavy: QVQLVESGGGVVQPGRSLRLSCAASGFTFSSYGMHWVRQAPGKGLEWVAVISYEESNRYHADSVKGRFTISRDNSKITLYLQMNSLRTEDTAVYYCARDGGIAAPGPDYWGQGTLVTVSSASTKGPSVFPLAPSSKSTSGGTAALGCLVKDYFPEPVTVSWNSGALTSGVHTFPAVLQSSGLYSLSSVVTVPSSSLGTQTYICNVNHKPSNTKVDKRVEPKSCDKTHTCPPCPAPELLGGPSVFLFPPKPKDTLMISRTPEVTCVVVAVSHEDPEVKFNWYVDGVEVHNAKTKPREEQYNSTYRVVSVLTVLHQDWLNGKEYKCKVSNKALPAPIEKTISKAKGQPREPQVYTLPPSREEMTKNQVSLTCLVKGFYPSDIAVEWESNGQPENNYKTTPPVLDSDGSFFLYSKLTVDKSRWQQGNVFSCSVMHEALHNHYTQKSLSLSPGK
light: B1 light
notes: Fc-silent IgG1 variant of Chir12.12 with D265A; same VH/VL as Chir12.12; also called mAb2 (D265A)
B4: mAb3 (antibody, human IgG1, kappa, L234A L235A)
heavy: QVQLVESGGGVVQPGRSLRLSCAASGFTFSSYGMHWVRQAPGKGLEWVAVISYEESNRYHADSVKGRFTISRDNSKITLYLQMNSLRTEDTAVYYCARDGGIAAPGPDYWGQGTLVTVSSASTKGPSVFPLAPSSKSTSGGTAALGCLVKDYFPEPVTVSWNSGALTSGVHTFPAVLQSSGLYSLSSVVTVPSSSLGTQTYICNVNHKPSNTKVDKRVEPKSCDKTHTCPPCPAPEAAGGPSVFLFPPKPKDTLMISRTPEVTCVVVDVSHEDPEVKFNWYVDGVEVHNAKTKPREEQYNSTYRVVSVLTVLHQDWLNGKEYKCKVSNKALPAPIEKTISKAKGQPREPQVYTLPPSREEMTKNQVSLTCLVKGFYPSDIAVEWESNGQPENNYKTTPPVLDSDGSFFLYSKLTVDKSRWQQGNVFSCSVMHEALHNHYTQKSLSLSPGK
light: B1 light
notes: IgG1 variant of Chir12.12 with L234A/L235A; same VH/VL as Chir12.12; also called mAb3 (LALA); LALA mutant

What was measured:
[1] = biological target: T1, human CD40 on cells (BJAB B cell line, human PBMCs, CD20+ B cells, tonsil B cells, monocyte-derived dendritic … (human, UniProt P25942 21-277)); assay: flow cytometry on BJAB cells, normalized median fluorescence [left panel (Experiment 68_09]
T1 construct: Endogenous CD40 on human cells
T1 sequence (P25942 21-277 limits assumed): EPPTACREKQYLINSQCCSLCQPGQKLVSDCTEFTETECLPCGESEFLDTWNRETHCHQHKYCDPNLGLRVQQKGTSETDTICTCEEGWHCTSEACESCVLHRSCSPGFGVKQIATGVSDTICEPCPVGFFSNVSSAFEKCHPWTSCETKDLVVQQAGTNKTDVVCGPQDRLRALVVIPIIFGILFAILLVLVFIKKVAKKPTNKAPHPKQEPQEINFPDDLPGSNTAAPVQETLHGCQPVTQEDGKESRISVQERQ
Protocol: (§1) Flow cytometry was used, in order to compare the binding of the different anti-CD40 antibody Fc variants in their binding to human BJAB cells. Therefore, 2×10⁵ cells were seeded per well in a 96-well V-bottom plate. The plates were washed twice with 200 μL of FACS buffer (PBS, 5% FCS, 2 mM EDTA) for 2 min at 4° C. at 1350×g. Supernatants were discarded and cells were resuspended in […] FACS buffer containing 8% human serum (InVitromex, Cat. No. S4190) and incubated for 10 min. After two washes anti-human CD40 Fc variants were added in 50 μL FACS buffer with 1% human serum starting at a concentration of 10 μg/mL in a 1:2 dilution. Cells were incubated for 30 min on ice followed by two washing steps. 50 μL of polyclonal rabbit anti-human IgG FITC, F(ab′)2 (DAKO, Cat. No. F 0315) were added to each well and incubated for 30 min on ice. At the end of the incubation cells were washed twice, resuspended in 100 μL FACS buffer and acquired on a FACS Cantoll.
(§2) After acquisition the mean fluorescence intensity of the FITC channel was acquired in FloJo.Graphing and curve fitting was performed with GraphPad Prism 5.0. Due to changing intensities between individual experiments, values were normalized. Therefore, the highest value of each antibody test series was equaled 100%. Non-linear curve fittings were performed with the percent values.
(§3) To compare the curves of the different experiments, the highest median fluorescence intensity of each individual dose-titration was set to 100% binding and a non-linear curve fitting was applied. […] No changes in the binding capabilities of the variants could be observed with the different mutations of the Fc binding region of Chir12.12.

[2] = biological target: T1, human CD40 on cells (BJAB B cell line, …); assay: cell-based or functional assay
[3] = biological target: T1, human CD40 on cells (BJAB B cell line, …); assay: cell-based or functional assay; remark: listed apart in the source
[4] = biological target: T1, human CD40 on cells (BJAB B cell line, …); assay: flow cytometry on BJAB cells, normalized median fluorescence [right panel (Experiment 72_09]
Protocol: as §1, §2, §3

[5] = biological target: T1, human CD40 on cells (BJAB B cell line, …); assay: cell-based or functional assay; remark: listed apart in the source
[6] = biological target: human CD40 (Biacore antigen) (human, UniProt P25942 21-193, limits assumed); assay: Biacore (SPR); format not described
Sequence of human CD40 (Biacore antigen) (P25942 21-193 limits assumed): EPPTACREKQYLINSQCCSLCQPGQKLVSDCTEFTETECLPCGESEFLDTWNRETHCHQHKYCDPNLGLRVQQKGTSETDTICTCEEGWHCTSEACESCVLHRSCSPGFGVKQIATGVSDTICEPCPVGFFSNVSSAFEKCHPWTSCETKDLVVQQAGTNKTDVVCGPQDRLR

[7] = biological target: T1, human CD40 on cells (BJAB B cell line, …); assay: cell-based or functional assay; remark: listed apart in the source
[8] = biological target: T2, Rhesus CD40 on CD20+ B cells / PBMCs (Rhesus, UniProt F6SNI1 21-278); assay: cell-based or functional assay
T2 sequence (F6SNI1 entry or part of it limits assumed): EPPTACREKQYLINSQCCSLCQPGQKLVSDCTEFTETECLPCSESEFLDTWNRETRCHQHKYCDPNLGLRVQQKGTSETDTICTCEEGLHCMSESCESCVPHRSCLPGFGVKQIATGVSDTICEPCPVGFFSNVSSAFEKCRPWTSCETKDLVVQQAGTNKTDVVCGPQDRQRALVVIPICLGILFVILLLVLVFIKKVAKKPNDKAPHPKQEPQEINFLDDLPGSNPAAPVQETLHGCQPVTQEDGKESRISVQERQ

[9] = biological target: T1, human CD40 on cells (BJAB B cell line, …); assay: flow cytometry on human CD20+ B cells
Protocol: (§4) PBMCs (rhesus, cynomolgus or human) or tonsil B cells (human only) were incubated at 4° C. for 30 min with purified labeled mAb1 or isotype control antibodies in dose response (final concentration range 2.5 μg/ml-0.00125 μg/ml). Cells were subsequently washed prior to being incubated with an anti-human (non-human primate cross-reactive) and a biotinylated anti-human IgG antibody with minimal cross-reactivity to NHPs (R10; note that it was possible to distinguish membrane IgG expressing human B cells either by including an anti-IgM stain or via differential intensity of FACS staining). Cells were again incubated at 4° C. for 30 min prior to being washed and subject to final staining with streptavidin-FITC for 20 min at 4° C. Cells were subsequently washed and evaluation of CD40 expression on CD20+ cells was performed by flow cytometry.

[10] = biological target: T2, Rhesus CD40 on CD20+ B cells / PBMCs; assay: flow cytometry on Rhesus CD20+ B cells (n = 6)
Protocol: as §4

[11] = biological target: T3, Cynomolgus CD40 on CD20+ B cells / PBMCs (Cynomolgus, UniProt G7PG38 21-278); assay: flow cytometry on Cynomolgus CD20+ B cells
T3 construct: also called CD40 (Cynomolgus); Cynomolgus monkey CD40
T3 sequence (G7PG38 entry or part of it limits assumed): as the sequence (F6SNI1 entry or part of it limits assumed) above, with R70Q, M92T, A207V, L220P counted along it
Protocol: as §4

[12] = biological target: T1, human CD40 on cells (BJAB B cell line, …); assay: cell-based or functional assay; remark: listed apart in the source
[13] = biological target: T3, Cynomolgus CD40 on CD20+ B cells / PBMCs; assay: cell-based or functional assay
[14] = biological target: T2, Rhesus CD40 on CD20+ B cells / PBMCs; assay: cell-based or functional assay; remark: listed apart in the source

Binder | EC50 (read off the curve) [1] [µg/mL] | IC50 for inhibition of CD40L-mediated proliferation of PBMCs [2] [µg/mL] | Agonist activity on huPBMCs (EC50, ng/ml) [3] [ng/mL] | CD40L inhibition - huPBMCs (IC50, ng/ml) [3] [ng/mL] | EC50 (read off the curve) [4] [µg/mL] | IC50 for the inhibition of TNF alpha release from human MoDCs stimulated with MegaCD40L, average [5] [µg/mL] | IC50 for the inhibition of TNF alpha release from human MoDCs stimulated with MegaCD40L, experiment #2 [5] [µg/mL] | IC50 for the inhibition of TNF alpha release from human MoDCs stimulated with MegaCD40L, experiment #3 [5] [µg/mL] | Kd [6] [nM] | IC50 in the functional inhibition test (soluble CD154 + IL4-induced proliferation, human tonsil B cells) [7] [µg/mL] | IC50 in the functional inhibition test (soluble CD154 + IL4-induced proliferation, rhesus PBMCs) [8] [µg/mL] | EC50 [9] | EC50 [10] [µg/mL] | EC50 [11] | CD154 inhibition (IC50, µg/ml), CD154+IL-4 induced proliferation of human tonsil B cells [12] | CD154 inhibition (IC50, µg/ml), CD154+IL-4 induced proliferation of Cynomolgus PBMCs [13] | CD154 inhibition (IC50, µg/ml), CD154+IL-4 induced proliferation of Rhesus PBMCs (n = 6) [14] [µg/mL] | IC50 for the inhibition of TNF alpha release from human MoDCs stimulated with MegaCD40L, experiment #1 [5] [µg/mL]
B1 | ~0.1 | 0.176 | > 10000 | 13 | ~0.3 | 0.036 | 0.041 | 0.03 | 0.55 |  |  |  |  |  |  |  |  | 
B2 | ~0.3 | 0.058 | > 10000 | 15 | ~0.5 | 0.04 | 0.044 | 0.058 | 0.69 | 0.067 | 0.0255 | 0.26 µg/mL and 0.28 µg/mL | 0.22 | 0.3 µg/mL and 0.24 µg/mL | 0.058 µg/mL and 0.075 µg/mL | 0.015 µg/mL and 0.02 µg/mL | 0.03 | 0.023
B3 |  | 0.146 | > 10000 | 17 |  | 0.033 | 0.012 | 0.042 | 0.49 |  |  |  |  |  |  |  |  | 0.041
B4 | ~0.1 | 0.118 | > 10000 | 15 | ~0.2 | 0.032 | 0.008 | 0.047 | 0.33 |  |  |  |  |  |  |  |  | 0.039
